Patent US20230151109A1 (UCB, published 2023)

Columns and labels:
[1] = target: T1, full-length CD9 expressed on cells (human, UniProt P21926 2-228); experiment: selection by binding to cells expressing full-length CD9; method not described
T1 construct: also called human CD9
T1 sequence: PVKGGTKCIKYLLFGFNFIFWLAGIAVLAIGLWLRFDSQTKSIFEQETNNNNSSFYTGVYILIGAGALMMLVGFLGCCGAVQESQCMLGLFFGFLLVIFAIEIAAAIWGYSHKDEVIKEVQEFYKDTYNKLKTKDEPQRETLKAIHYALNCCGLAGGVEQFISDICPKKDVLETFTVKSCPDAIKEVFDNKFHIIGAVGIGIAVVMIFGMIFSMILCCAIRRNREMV

[2] = target: T2, recombinant human CD9 long extracellular loop 2-human Fc fusion protein (10015-CD, R&D Systems) (human, UniProt P21926 112-195); experiment: biolayer interferometry (Octet RED384), CD9 loop 2-Fc on AHC biosensors, Fab-Y 10 ug/mL
T2 construct: Bought protein; The parts are ordered as in the printed name; also called CD9-loop2; long extracellular loop 2 peptide; not shown: human Fc of the bought fusion protein
T2 sequence: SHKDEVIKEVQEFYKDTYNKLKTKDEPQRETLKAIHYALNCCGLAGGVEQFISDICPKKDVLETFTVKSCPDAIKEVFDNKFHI
Protocol: Seven different CD9 antibodies each providing unique functional activity with CD137, CD7 and HVEM antibodies in a bispecific combination were analysed for their ability to bind the long extracellular loop 2 of CD9. CD9 contains two extracellular loops: a short extracellular loop (loop 1: 34-55 in SEQ ID NO:1) and a long extracellular loop (loop 2: 112-195 in SEQ ID NO:1). We used biolayer interferometry to assess binding of our panel of CD9 Fab-Y antibodies (selected for ability to bind full-length CD9 expressed on cells) to the long extracellular loop 2 peptide, using the Octet® RED384 System (FortéBio) with anti-hIgG Fc Capture (AHC) Biosensors (FortéBio) at room temperature. Firstly, an array of 8 sensors was dipped in kinetics buffer (PBS 0.1%, BSA 0.02%, Tween 20) for 120 seconds to provide a baseline signal. Sensors were then moved to wells containing 200 μl of recombinant human CD9 long extracellular loop 2-human Fc fusion protein (10015-CD, R&D Systems®) at 2 μg/mL in kinetics buffer to immobilize the protein to the biosensor (100 seconds), followed by a second baseline step (180 seconds) in kinetics buffer to equilibrate the biosensors now coated with the CD9 long extracellular loop 2-human Fc fusion protein. No detachment of the peptide was observed during this step. […]

binding result [1]: binds
binding result [2]: binds
B1: anti-CD9 Fab-Y antibody 7272 (Fab, V domains shown)
VH: QSLEESGGRLVTPGTPLTLTCTVSGFSLSSYAMGWVRQAPGKGLEWIGAIGSITATGYARWAKGRFSISKTSTTVDLKMTSPTTEDTATYFCAREIYVGSAYAFDIWGPGTLVTVSS
VL: AYDMTQTPASVEVAVGDTVTIKCQASQSISNYLAWYQQKPGQPPKLLIYLASTLASGVPSRFKGSGSGTEFTLTISDLECADAATYYCQQGYIDNVNKGFGGGTEVVVK
notes: Tested as Fab-Y: Fab fragment joined through a peptide linker at CH1 to the GCN4 peptide (clone 7P14P); also called VR7272
